Source: PMC10435522, “Molecular insights into recognition of GUCY2C by T-cell engaging bispecific antibody anti-GUCY2CxCD3” (Scientific Reports, 2023)

T1: GUCY2C ECD peptide 19 (68-NSGDCRSSTCEGLDLLRKIS-87) (human)
T1 construct: human GUCY2C residues 68-87; numbers count on: the mature protein (91-110 of P25092); In the crystal the peptide holds the disulfide bond Cys72-Cys77; also called GUCY2C-peptide; 68GUCY2C-peptide87; source: synthetic peptide (New England Peptide arrays for the DELFIA; chemically synthesized for the crystal)
T1 chain: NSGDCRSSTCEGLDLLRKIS

B1: GUCY2C-1608 (IgG version of PF-07062119) (antibody, V domains shown)
VH: EVQLVESGGGLVQPGGSLRLSCAASGFTFSSYWMHWVRQAPGKGLEWIGEIKPSNELTNVHEKFKDRFTISVDKAKNSAYLQMNSLRAEDTAVYYCTRTITTTEGYWFFDVWGQGTLVTVSS
VL: DIQLTQSPSSLSASVGDRVTITCRASESVDYYGSSLLQWYQQKPGKAPKLLIYAASKLASGVPSRFSGSGSGTDFTLTISSLQPEDFATYYCQQTRKAYTFGQGTKLEIK
notes: as the VH in aGUCY2C-scFv; as the VL in aGUCY2C-scFv; IgG detected with an anti-human IgG secondary antibody; also called GUGY2C-1608; Ab GUCY2C-1608
B2: anti-GUCY2C single chain Fv (aGUCY2C-scFv) fragment of PF-07062119 (scFv, V domains shown)
VH: EVQLVESGGGLVQPGGSLRLSCAASGFTFSSYWMHWVRQAPGKGLEWIGEIKPSNELTNVHEKFKDRFTISVDKAKNSAYLQMNSLRAEDTAVYYCTRTITTTEGYWFFDVWGQGTLVTVSS
VL: DIQLTQSPSSLSASVGDRVTITCRASESVDYYGSSLLQWYQQKPGKAPKLLIYAASKLASGVPSRFSGSGSGTDFTLTISSLQPEDFATYYCQQTRKAYTFGQGTKLEIK
notes: Fc removed with AcTEV protease; also called anti-GUCY2C-scFv; source: Expi293F, transfected (with kifunensine), purified (MAb Select Sure, Superdex 200 SEC, TEV cleavage); not shown: Fc, C-terminal, cleaved

biological target: T2, human GUCY2C ECD, purified (from HuGUCY2C_ECD_TEV_muIgG2amutFc_Flag) (human, UniProt P25092); test: ELISA; DELFIA competition ELISA; human GUCY2C ECD coated at 1 ug/ml; GUCY2C-1608 at EC80 mixed with peptide 19 serially diluted 1:3 from 10 ug/ml; anti-human IgG europium detection; conditions: both partners purified
T2 construct: human GUCY2C extracellular domain, residues 1-407; numbers count on: the mature protein (24-430 of P25092); For the crystal the complex with the scFv was treated with endoglycosidase H. The limits 1-407 are stated for the crystallised ECD; also called full GUCY2C ECD; full length GUCY2C-ECD; source: Expi293F, transfected (with kifunensine), purified (MAb Select Sure, Superdex 200 SEC, TEV …)
T2 sequence (P25092 24-407): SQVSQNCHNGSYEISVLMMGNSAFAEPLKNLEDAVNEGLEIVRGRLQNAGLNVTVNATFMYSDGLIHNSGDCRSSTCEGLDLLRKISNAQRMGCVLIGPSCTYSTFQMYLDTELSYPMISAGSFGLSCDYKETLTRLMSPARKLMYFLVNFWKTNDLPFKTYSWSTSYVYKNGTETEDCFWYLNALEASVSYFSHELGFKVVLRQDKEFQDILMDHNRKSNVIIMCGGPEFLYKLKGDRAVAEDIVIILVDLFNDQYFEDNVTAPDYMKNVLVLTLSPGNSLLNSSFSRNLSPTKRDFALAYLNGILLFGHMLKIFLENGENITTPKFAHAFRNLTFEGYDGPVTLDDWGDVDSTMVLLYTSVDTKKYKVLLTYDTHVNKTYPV

B1: binds.

Biological target: T1, GUCY2C ECD peptide 19 …
Test: as above
Conditions: both partners purified

B1: binds.

biological target: PF-07062119, anti-GUCY2CxCD3 bispecific antibody; test: flow cytometry of yeast-displayed GUCY2C ECD; conditions: 2 independent experiments, triplicate samples; parent: est. 36; read off a plot

In order of falling response:
1. human GUCY2C ECD displayed on yeast (CID1814) (from UniProt P25092) K85Q  50
2. human GUCY2C ECD displayed on yeast (CID1814) (from UniProt P25092) R84K  48
3. human GUCY2C ECD displayed on yeast (CID1814) (from UniProt P25092) S74T  41
4. human GUCY2C ECD displayed on yeast (CID1814) (from UniProt P25092) I66L  34
5. human GUCY2C ECD displayed on yeast (CID1814) (from UniProt P25092) D81E  33
6. human GUCY2C ECD displayed on yeast (CID1814) (from UniProt P25092) S87F  32
7. human GUCY2C ECD displayed on yeast (CID1814) (from UniProt P25092) S62F  30
8. human GUCY2C ECD displayed on yeast (CID1814) (from UniProt P25092) L83I  28
9. human GUCY2C ECD displayed on yeast (CID1814) (from UniProt P25092) S15N  21

same assay, conditions: 2 independent experiments, triplicate samples; parent: est. 130; read off a plot

In order of rising response:
1. human GUCY2C ECD displayed on yeast (CID1814) (from UniProt P25092) human 153-166 substituted with chicken residues 151-164  37
2. human GUCY2C ECD displayed on yeast (CID1814) (from UniProt P25092) N21D; A23D; D71G  43
3. human GUCY2C ECD displayed on yeast (CID1814) (from UniProt P25092) human 363-376 substituted with chicken residues 361-374  65
4. human GUCY2C ECD displayed on yeast (CID1814) (from UniProt P25092) human 259-269 substituted with chicken residues 257-267  80
5. human GUCY2C ECD displayed on yeast (CID1814) (from UniProt P25092) S163T; G403S  96
6. human GUCY2C ECD displayed on yeast (CID1814) (from UniProt P25092) Y109V; T133N  97
7. human GUCY2C ECD displayed on yeast (CID1814) (from UniProt P25092) human 238-243 substituted with chicken residues 236-241  110
8. human GUCY2C ECD displayed on yeast (CID1814) (from UniProt P25092) A331E; L335I  110
9. human GUCY2C ECD displayed on yeast (CID1814) (from UniProt P25092) human 172-178 substituted with chicken residues 170-176  140
10. human GUCY2C ECD displayed on yeast (CID1814) (from UniProt P25092) human 207-217 substituted with chicken residues 205-215  150
11. human GUCY2C ECD displayed on yeast (CID1814) (from UniProt P25092) human 198-206 substituted with chicken residues 196-204  160
12. human GUCY2C ECD displayed on yeast (CID1814) (from UniProt P25092) Q210R; E230A; D238T; E259R  220

same assay, conditions: 2 independent experiments, triplicate samples; read off a plot

In order of rising response:
1. chicken GUCY2C ECD displayed on yeast (CID1818) (from UniProt E1BZE2) chicken residues 70-84 replaced by human 73-87  11
2. chicken GUCY2C ECD displayed on yeast (CID1818) (from UniProt E1BZE2) chicken residues 71-89 replaced by human 74-92  14

Biological target: T1, GUCY2C ECD peptide 19 …
Test: crystal structure; aGUCY2C-scFv with GUCY2C-peptide 68-87, complex formed at 1:1.2 molar ratio; 1.6 A; two complexes in the asymmetric unit
Conditions: both partners purified

B2: binds.

biological target: T2, human GUCY2C ECD, purified (from …); test: crystal structure; aGUCY2C-scFv with GUCY2C-ECD (1-407), mixed at 1.2:1, treated with endoglycosidase H, purified by SEC; 3.52 A; one complex in the asymmetric unit; conditions: both partners purified

B2: binds.
